Data published in PMC11721587, “Morphogen-induced kinase condensates transduce Hh signal by allosterically activating Gli” (Science Advances, 2025).
Residue numbers refer to the chain shown, from its start.

B1: Ulk3-HA^WT (in HEK293T) (enzyme, mouse, UniProt Q3U3Q1 1-472, looked up)
chain: MAGPSWGLPRLDGFILTERLGSGTYATVYKAYAKKDTREVVAIKCVAKKSLNKASVENLLTEIEILKGIRHPHIVQLKDFQWDNDNIYLIMEFCAGGDLSRFIHTRRILPEKVARVFMQQLASALQFLHERNISHLDLKPQNILLSSLEKPHLKLADFGFAQHMSPWDEKHVLRGSPLYMAPEMVCRRQYDARVDLWSVGVILYEALFGQPPFASRSFSELEEKIRSNRVIELPLRPQLSLDCRDLLQRLLERDPARRISFKDFFAHPWVDLEHMPSGESLAQARALVVEAVKKDQEGDAAAALSLYCKALDFFVPALHYEVDAQRKEAIKAKVGQYVSRAEELKAIVSSSNQALLRQGTTVQELLREMARDKPRLLAALEVASAALAKEEEAGKEQDALDLYQHSLGELLVLLAAEAPGRRRELLHTEVQNLMARAEYLKEQIKIRESHWEAESLDKEGLSESVRSSCTLQ
modifications: SUMO-conjugated form enriched in the condensates (P100)
notes: source: HEK293T, transfected, overexpressed; in lysate fractions (S100, P100); purified from HEK293T for in vitro maturation; not shown: 3x HA, C-terminal, kept
B2: Flag-Fu^EE (enzyme)
chain: MNRYAVSSLVGQGSFGCVYKATRKDDSKVVAIKVISKRGRATKELKNLRRECDIQARLKHPHVIEMIESFESKTDLFVVTEFALMDLHRYLSYNGAMGEEPARRVTGHLVSALYYLHSNRILHRDLKPQNVLLDKNMHAKLCDFGLARNMELGEHVLTSIKGTPLYMAPELLAEQPYDHHADMWSLGCIAYESMAGQPPFCASSILHLVKMIKHEDVKWPSTLTSECRSFLQGLLEKDPGLRISWTQLLCHPFVEGRIFIAETQAEAAKESPFTNPEAKVKSSKQSDPEVGDLDEALAALDFGESRQENLTTSRDSINAIAPSDVEHLETDVEDNMQRVVVPFADLSYRDLSGVRAMPMVHQPVINSHTCFVSGNSNMILNHMNDNFDFQASLRGGGVAAKPIVAPTVRQSRSKDLEKRKLSQNLDNFSVRLGHSVDHEAQRKATEIATQEKHNQENKPPAEAISYANSQPPQQQPQQLKHSMHSTNEEKLSSDNTPPCLLPGWDSCDESQSPPIENDEWLAFLNRSVQELLDGELDSLKQHNLVSIIVAPLRNSKAIPRVLKSVAQLLSLPFVLVDPVLIVDLELIRNVYVDVKLVPNLMYACKLLLSHKQLSDSAASAPLTTGSLSRTLRSIPELTVEELETACSLYELVCHLVHLQQQFLTQFCDAVAILAASDLFLNFLTHDFRQSDSDAASVRLAGCMLALMGCVLRELPENAELVERIVFNPRLNFVSLLQSRHHLLRQRSCQLLRLLARFSLRGVQRIWNGELRFALQQLSEHHSYPALRGEAAQTLDEISHFTFFVT
modifications: SUMOylated in Sf9 cells (condensate fraction)
B3: fused (Fu) (enzyme, Drosophila (endogenous in Cl8), UniProt P23647 1-805, looked up)
chain: B2 chain with E151T, E154T
notes: Fu Ser/Thr kinase, Drosophila, endogenous in Cl8 cells; After Hh it is phosphorylated (T158/S159, S482) and SUMO-conjugated; the SDS-resistant dimer is called mature Fu; also called endogenous Fu; mature Fu; source: endogenous, Cl8 cells (fractions, lysates)

What was measured:
[1] = biological target: the molecule itself; assay: co-sedimentation; sedimentation assay of HEK293T cells overexpressing Ulk3-HA constructs; S100 soluble, P100 condensates
[2] = biological target: the molecule itself; assay: SDS-PAGE and immunoblot (SDS-resistant dimer); SDS-resistant ~250 Kd Fu dimer ('mature Fu') in extracts of cells (Cl8 with Hh-conditioned medium, S2, Sf9, wing discs); tells nothing of SDS-labile association

Row | Protein | binding result [1] | stoichiometry N [2]
1 | B1 | binds | 
2 | B2 |  | 2
3 | B3 |  | 2
